How the values were obtained:
[1] = biological target: T1, Latrophilin-3 ADHD-related variant R465S (Lphn3^R465S) (human)
T1 chain: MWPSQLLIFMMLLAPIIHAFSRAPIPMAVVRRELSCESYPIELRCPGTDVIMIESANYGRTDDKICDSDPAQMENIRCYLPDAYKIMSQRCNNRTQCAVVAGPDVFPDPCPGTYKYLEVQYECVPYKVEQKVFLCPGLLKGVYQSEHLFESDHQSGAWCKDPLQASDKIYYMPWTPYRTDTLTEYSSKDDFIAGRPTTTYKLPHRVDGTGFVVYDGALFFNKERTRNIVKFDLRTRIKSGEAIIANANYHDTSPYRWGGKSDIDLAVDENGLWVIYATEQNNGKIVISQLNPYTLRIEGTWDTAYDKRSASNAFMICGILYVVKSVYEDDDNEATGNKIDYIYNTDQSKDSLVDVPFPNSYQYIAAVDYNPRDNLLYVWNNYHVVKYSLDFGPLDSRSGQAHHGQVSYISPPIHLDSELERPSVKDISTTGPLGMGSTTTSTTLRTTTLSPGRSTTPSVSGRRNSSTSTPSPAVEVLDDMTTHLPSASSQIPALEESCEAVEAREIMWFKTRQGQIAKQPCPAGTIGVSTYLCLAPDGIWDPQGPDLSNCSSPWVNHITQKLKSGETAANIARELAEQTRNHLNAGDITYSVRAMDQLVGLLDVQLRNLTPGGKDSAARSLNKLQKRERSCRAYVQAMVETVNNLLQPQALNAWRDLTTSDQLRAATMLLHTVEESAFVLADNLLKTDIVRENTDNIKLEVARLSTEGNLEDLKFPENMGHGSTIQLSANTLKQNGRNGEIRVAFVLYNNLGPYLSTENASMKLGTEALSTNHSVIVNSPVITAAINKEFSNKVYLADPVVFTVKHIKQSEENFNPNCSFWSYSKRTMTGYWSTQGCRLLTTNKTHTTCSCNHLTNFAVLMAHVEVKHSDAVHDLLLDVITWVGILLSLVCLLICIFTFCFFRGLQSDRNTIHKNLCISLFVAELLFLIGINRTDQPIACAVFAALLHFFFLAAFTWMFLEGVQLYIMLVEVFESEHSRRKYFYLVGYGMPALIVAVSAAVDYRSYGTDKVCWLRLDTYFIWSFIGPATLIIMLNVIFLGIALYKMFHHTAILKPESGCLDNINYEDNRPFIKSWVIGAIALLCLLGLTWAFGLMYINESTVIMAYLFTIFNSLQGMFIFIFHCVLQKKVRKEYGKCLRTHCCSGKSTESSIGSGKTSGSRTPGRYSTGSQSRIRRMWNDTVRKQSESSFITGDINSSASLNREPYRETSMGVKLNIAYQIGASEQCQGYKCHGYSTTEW

[2] = biological target: T2, Latrophilin-3 ADHD-related variant A247S (Lphn3^A247S) (human)
T2 chain: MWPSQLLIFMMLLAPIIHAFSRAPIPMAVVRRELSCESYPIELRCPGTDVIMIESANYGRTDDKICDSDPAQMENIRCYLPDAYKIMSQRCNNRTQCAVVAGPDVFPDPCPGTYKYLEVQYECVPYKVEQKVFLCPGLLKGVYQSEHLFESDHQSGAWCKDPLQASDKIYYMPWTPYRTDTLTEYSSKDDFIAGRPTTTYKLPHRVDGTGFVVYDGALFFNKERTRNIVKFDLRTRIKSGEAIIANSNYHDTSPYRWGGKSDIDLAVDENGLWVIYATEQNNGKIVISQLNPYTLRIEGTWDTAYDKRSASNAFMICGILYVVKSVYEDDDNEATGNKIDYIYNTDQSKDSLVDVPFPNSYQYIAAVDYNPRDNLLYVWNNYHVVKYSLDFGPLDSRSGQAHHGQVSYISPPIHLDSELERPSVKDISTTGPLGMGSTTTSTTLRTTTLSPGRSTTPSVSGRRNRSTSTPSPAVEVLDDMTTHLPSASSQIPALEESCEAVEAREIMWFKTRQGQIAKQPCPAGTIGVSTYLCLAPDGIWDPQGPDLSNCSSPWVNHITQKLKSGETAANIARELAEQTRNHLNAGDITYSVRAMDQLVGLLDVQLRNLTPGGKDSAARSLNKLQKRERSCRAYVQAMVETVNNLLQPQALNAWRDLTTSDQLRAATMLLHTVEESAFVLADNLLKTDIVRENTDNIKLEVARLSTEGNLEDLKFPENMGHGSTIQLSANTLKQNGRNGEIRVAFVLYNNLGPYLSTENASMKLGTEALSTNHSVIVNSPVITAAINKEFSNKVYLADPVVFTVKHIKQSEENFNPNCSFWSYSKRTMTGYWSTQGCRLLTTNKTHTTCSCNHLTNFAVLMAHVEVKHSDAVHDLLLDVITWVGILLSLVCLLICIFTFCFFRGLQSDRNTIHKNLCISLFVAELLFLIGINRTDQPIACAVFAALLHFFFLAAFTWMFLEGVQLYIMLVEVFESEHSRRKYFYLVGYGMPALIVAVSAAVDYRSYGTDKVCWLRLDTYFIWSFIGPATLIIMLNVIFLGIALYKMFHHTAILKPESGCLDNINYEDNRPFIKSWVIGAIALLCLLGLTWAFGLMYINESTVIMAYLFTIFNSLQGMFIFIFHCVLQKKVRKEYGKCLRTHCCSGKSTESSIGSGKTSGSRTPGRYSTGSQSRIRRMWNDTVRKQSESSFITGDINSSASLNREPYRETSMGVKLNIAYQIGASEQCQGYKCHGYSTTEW

Kd [1]: 1.02 nM | Kd [2]: 1.22 nM
B1: soluble FLRT3 extracellular domain fused to the constant fraction of human IgG (FLRT3^ECD-Fc) (Fc fusion)
chain: KSCPSVCRCDAGFIYCNDRFLTSIPTGIPEDATTLYLQNNQINNAGIPSDLKNLLKVERIYLYHNSLDEFPTNLPKYVKELHLQENNIRTITYDSLSKIPYLEELHLDDNSVSAVSIEEGAFRDSNYLRLLFLSRNHLSTIPWGLPRTIEELRLDDNRISTISSPSLQGLTSLKRLVLDGNLLNNHGLGDKVFFNLVNLTELSLVRNSLTAAPVNLPGTNLRKLYLQDNHINRVPPNAFSYLRQLYRLDMSNNNLSNLPQGIFDDLDNITQLILRNNPWYCGCKMKWVRDWLQSLPVKVNVRGLMCQAPEKVRGMAIKDLNAELFDCKDSGIVSTIQITTAIPNTVYPAQGQWPAPVTKQPDIKNPKLTKDHQTTGSPSRKTITITVKSVTSDTIHISWKLALPMTALRLSWLKLGHSPAFGSITETIVTGERSEYLVTALEPDSPYKVCMVPMETSNLYLFDETPVCIETETAPLRMYNPTTTLNREQEKEPYKNPNLP
modifications: HA/Flag epitopes left out; isoform assumed; signal peptide removed and GPS autoproteolysis expected

Reference: article PMC9135631 (2022)
